# Laboratory results taken from patent publication US20260098059A1 (ENDOMET BIOSCIENCES, published 2026).
# Where “and” joins values, the source holds several entries; their conditions need not be identical. Identical values can stand only once. *1 amine or outer side, *2 acyl side, *3 side chain or, on linkers, in order; H or OH if unused. Primed or numbered codes have the meaning given here. [ ]: non-standard residue; d: D form. Cys(Me) = CSC[C@H](N[*:1])C(=O)[*:2]; Bz′ = not defined here; Sar = CNCC(=O)O
# B1: SEQ ID NO: 164 (peptide)
# peptide: LWFLICFWG
# HELM: PEPTIDE1{[Nle].W.F.L.I.C.F.W.G}$$$$V2.0
# SMILES: CCCC[C@H](N)C(=O)N[C@@H](Cc1c[nH]c2ccccc12)C(=O)N[C@@H](Cc1ccccc1)C(=O)N[C@@H](CC(C)C)C(=O)N[C@H](C(=O)N[C@@H](CS)C(=O)N[C@@H](Cc1ccccc1)C(=O)N[C@@H](Cc1c[nH]c2ccccc12)C(=O)NCC(=O)O)[C@@H](C)CC
# B2: SEQ ID NO: 191 (peptide)
# peptide: MWFLICAWD
# HELM: PEPTIDE1{[O=C(CCCN[*:1])[*:2]].M.W.F.L.I.C.A.W.D}$PEPTIDE1,PEPTIDE1,1:R1-10:R3$$$V2.0
# SMILES: CC[C@H](C)[C@@H]1NC(=O)[C@H](CC(C)C)NC(=O)[C@H](Cc2ccccc2)NC(=O)[C@H](Cc2c[nH]c3ccccc23)NC(=O)[C@H](CCSC)NC(=O)CCCNC(=O)C[C@@H](C(=O)O)NC(=O)[C@H](Cc2c[nH]c3ccccc23)NC(=O)[C@H](C)NC(=O)[C@H](CS)NC1=O
# B3: SEQ ID NO: 216 (peptide)
# peptide: MWALISFWG
# HELM: PEPTIDE1{[ac].M.W.[Cha].L.I.S.F.W.G}$$$$V2.0
# SMILES: CC[C@H](C)[C@H](NC(=O)[C@H](CC(C)C)NC(=O)[C@H](CC1CCCCC1)NC(=O)[C@H](Cc1c[nH]c2ccccc12)NC(=O)[C@H](CCSC)NC(C)=O)C(=O)N[C@@H](CO)C(=O)N[C@@H](Cc1ccccc1)C(=O)N[C@@H](Cc1c[nH]c2ccccc12)C(=O)NCC(=O)O
# B4: SEQ ID NO: 204 (peptide)
# peptide: KWGLISAWD
# HELM: PEPTIDE1{K.W.[O=C([C@@H](N[*:1])C1CCCCC1)[*:2]].L.I.S.A.W.D}$PEPTIDE1,PEPTIDE1,1:R3-9:R3$$$V2.0
# SMILES: CC[C@H](C)[C@@H]1NC(=O)[C@H](CC(C)C)NC(=O)[C@H](C2CCCCC2)NC(=O)[C@H](Cc2c[nH]c3ccccc23)NC(=O)[C@@H](N)CCCCNC(=O)C[C@@H](C(=O)O)NC(=O)[C@H](Cc2c[nH]c3ccccc23)NC(=O)[C@H](C)NC(=O)[C@H](CO)NC1=O
# B5: SEQ ID NO: 184 (peptide)
# peptide: KWILISAWE
# HELM: PEPTIDE1{K.W.I.L.I.S.A.W.E}$PEPTIDE1,PEPTIDE1,1:R3-9:R3$$$V2.0
# SMILES: CC[C@H](C)[C@@H]1NC(=O)[C@H](CC(C)C)NC(=O)[C@H]([C@@H](C)CC)NC(=O)[C@H](Cc2c[nH]c3ccccc23)NC(=O)[C@@H](N)CCCCNC(=O)CC[C@@H](C(=O)O)NC(=O)[C@H](Cc2c[nH]c3ccccc23)NC(=O)[C@H](C)NC(=O)[C@H](CO)NC1=O
# B6: SEQ ID NO: 188 (peptide)
# peptide: KWILISAWE
# HELM: PEPTIDE1{[ac].K.W.I.L.I.S.A.W.E}$PEPTIDE1,PEPTIDE1,2:R3-10:R3$$$V2.0
# SMILES: CC[C@H](C)[C@@H]1NC(=O)[C@H](CC(C)C)NC(=O)[C@H]([C@@H](C)CC)NC(=O)[C@H](Cc2c[nH]c3ccccc23)NC(=O)[C@@H](NC(C)=O)CCCCNC(=O)CC[C@@H](C(=O)O)NC(=O)[C@H](Cc2c[nH]c3ccccc23)NC(=O)[C@H](C)NC(=O)[C@H](CO)NC1=O
# B7: SEQ ID NO: 199 (peptide)
# peptide: KWFLISFWE
# HELM: PEPTIDE1{[ac].K.W.F.L.I.S.F.W.E}$PEPTIDE1,PEPTIDE1,2:R3-10:R3$$$V2.0
# SMILES: CC[C@H](C)[C@@H]1NC(=O)[C@H](CC(C)C)NC(=O)[C@H](Cc2ccccc2)NC(=O)[C@H](Cc2c[nH]c3ccccc23)NC(=O)[C@@H](NC(C)=O)CCCCNC(=O)CC[C@@H](C(=O)O)NC(=O)[C@H](Cc2c[nH]c3ccccc23)NC(=O)[C@H](Cc2ccccc2)NC(=O)[C@H](CO)NC1=O
# B8: SEQ ID NO: 185 (peptide)
# peptide: KWFLICFWE
# HELM: PEPTIDE1{[ac].K.W.F.L.I.C.F.W.E}$PEPTIDE1,PEPTIDE1,2:R3-10:R3$$$V2.0
# SMILES: CC[C@H](C)[C@@H]1NC(=O)[C@H](CC(C)C)NC(=O)[C@H](Cc2ccccc2)NC(=O)[C@H](Cc2c[nH]c3ccccc23)NC(=O)[C@@H](NC(C)=O)CCCCNC(=O)CC[C@@H](C(=O)O)NC(=O)[C@H](Cc2c[nH]c3ccccc23)NC(=O)[C@H](Cc2ccccc2)NC(=O)[C@H](CS)NC1=O
# B9: SEQ ID NO: 217 (peptide)
# peptide: MWGLISFWG
# HELM: PEPTIDE1{[ac].M.W.[O=C([C@@H](N[*:1])C1CCCCC1)[*:2]].L.I.S.F.W.G}$$$$V2.0
# SMILES: CC[C@H](C)[C@H](NC(=O)[C@H](CC(C)C)NC(=O)[C@@H](NC(=O)[C@H](Cc1c[nH]c2ccccc12)NC(=O)[C@H](CCSC)NC(C)=O)C1CCCCC1)C(=O)N[C@@H](CO)C(=O)N[C@@H](Cc1ccccc1)C(=O)N[C@@H](Cc1c[nH]c2ccccc12)C(=O)NCC(=O)O
# notes: also called Hit 1
# B10: SEQ ID NO: 182 (peptide)
# peptide: KWILISFWE
# HELM: PEPTIDE1{K.W.I.L.I.S.F.W.E}$PEPTIDE1,PEPTIDE1,1:R3-9:R3$$$V2.0
# SMILES: CC[C@H](C)[C@@H]1NC(=O)[C@H](CC(C)C)NC(=O)[C@H]([C@@H](C)CC)NC(=O)[C@H](Cc2c[nH]c3ccccc23)NC(=O)[C@@H](N)CCCCNC(=O)CC[C@@H](C(=O)O)NC(=O)[C@H](Cc2c[nH]c3ccccc23)NC(=O)[C@H](Cc2ccccc2)NC(=O)[C@H](CO)NC1=O
# Molecular target: T1, β-catenin (UniProt P35222 134-665, limits assumed, biotinylated in the SPR and plate assays)
# T1 construct: also called beta catenin; biotinylated β-catenin
# T1 sequence (looked up): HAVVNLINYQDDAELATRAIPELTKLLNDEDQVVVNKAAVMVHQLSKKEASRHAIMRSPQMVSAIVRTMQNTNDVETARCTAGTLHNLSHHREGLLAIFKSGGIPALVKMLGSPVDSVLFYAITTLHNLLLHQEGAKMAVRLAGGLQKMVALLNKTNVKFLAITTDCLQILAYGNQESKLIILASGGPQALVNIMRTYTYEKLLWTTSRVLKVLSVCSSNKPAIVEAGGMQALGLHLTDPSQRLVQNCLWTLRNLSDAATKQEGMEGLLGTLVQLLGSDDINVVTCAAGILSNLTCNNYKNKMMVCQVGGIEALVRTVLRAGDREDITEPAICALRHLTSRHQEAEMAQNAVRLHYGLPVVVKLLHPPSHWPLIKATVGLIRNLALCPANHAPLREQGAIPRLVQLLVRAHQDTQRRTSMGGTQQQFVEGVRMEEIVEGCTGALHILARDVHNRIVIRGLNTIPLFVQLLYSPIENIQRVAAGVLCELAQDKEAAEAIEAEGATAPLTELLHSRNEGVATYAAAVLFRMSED
# Test: competitive FP
# Procedure, shortened: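 Competitive fluorescence polarization with inhibitor peptide serially diluted from 10 nM to 30 uM; polarization read at 470 nm excitation, 520 nm emission. Experiments performed three times.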
row,Kd,Binder
1,> 400 nM and ≤ 1000 nM,B1
2,> 400 nM and ≤ 1000 nM,B2
3,> 400 nM and ≤ 1000 nM,H-MWFLI[Cys(Me)]FWG-OH [SEQ ID NO: 214]
4,> 400 nM and ≤ 1000 nM,H-MWFLIAAWG-OH [SEQ ID NO: 212]
5,> 400 nM and ≤ 1000 nM,B3
6,> 400 nM and ≤ 1000 nM,B4
7,> 10000 nM and ≤ 30000 nM,B5
8,> 10000 nM and ≤ 30000 nM,B6
9,≤ 400 nM,Ac-MWILISFW[Sar]-OH [SEQ ID NO: 221]
10,> 400 nM and ≤ 1000 nM,B7
11,> 400 nM and ≤ 1000 nM,KWFLICAWD (cyclo-H2N-K(G*)WFLICAWD*-COOH) [SEQ ID NO: 207]
12,> 400 nM and ≤ 1000 nM,Ac-MWFLICFWG-OH [SEQ ID NO: 198]
13,≤ 400 nM,B8
14,≤ 400 nM,Ac-MWLLISFWG-OH [SEQ ID NO: 218]
15,> 400 nM and ≤ 1000 nM,H-AWFLISFWG-OH [SEQ ID NO: 209]
16,≤ 400 nM,B9
17,≤ 400 nM,Ac-MWILISFWG-OH [SEQ ID NO: 165]
18,> 400 nM and ≤ 1000 nM,B10
19,≤ 400 nM,{Bz′}-MWILISFWG-OH [SEQ ID NO: 223]

# Molecular target: T1, β-catenin
# Test: cell-based or functional assay
row,Wnt Reporter EC50,Binder
1,≤ 7500 nM,B1
2,> 7500 nM and ≤ 15000 nM,B2
3,≤ 7500 nM,H-MWFLI[Cys(Me)]FWG-OH [SEQ ID NO: 214]
4,≤ 7500 nM,H-MWFLIAAWG-OH [SEQ ID NO: 212]
5,≤ 7500 nM,B3
6,≤ 7500 nM,B4
7,≤ 7500 nM,B5
8,≤ 7500 nM,B6
9,≤ 7500 nM,Ac-MWILISFW[Sar]-OH [SEQ ID NO: 221]
10,≤ 7500 nM,B7
11,≤ 7500 nM,KWFLICAWD (cyclo-H2N-K(G*)WFLICAWD*-COOH) [SEQ ID NO: 207]
12,≤ 7500 nM,Ac-MWFLICFWG-OH [SEQ ID NO: 198]
13,> 22500 nM and ≤ 30000 nM,B8
14,≤ 7500 nM,Ac-MWLLISFWG-OH [SEQ ID NO: 218]
15,≤ 7500 nM,H-AWFLISFWG-OH [SEQ ID NO: 209]
16,≤ 7500 nM,B9
17,≤ 7500 nM,Ac-MWILISFWG-OH [SEQ ID NO: 165]
18,> 22500 nM and ≤ 30000 nM,B10
19,≤ 7500 nM,{Bz′}-MWILISFWG-OH [SEQ ID NO: 223]
